Source: PMC12431856, “Synthetic ZFTA fusions pinpoint disordered protein domain acquisition as a mechanism of brain tumorigenesis”

Target: ZFTA ZF1 (UniProt C9JLR9 81-172)
Assay: fluorescence polarization; FP: 25 mM citrate pH 5.6, 150 mM NaCl, 0.5 mM TCEP, 100 nM DNA, 15 nM-7.5 uM protein, 20 min, room temperature; NMR: same buffer with 5% D2O, 25 C
Conditions: protein: recombinant; tags: none (His6-MBP removed by TEV); label: 5'-Cy5 on top strand; blunt

ZFTA ZF1, sequence (C9JLR9 81-172): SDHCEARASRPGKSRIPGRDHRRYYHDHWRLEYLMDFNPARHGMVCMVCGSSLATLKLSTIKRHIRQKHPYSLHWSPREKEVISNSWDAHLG

B1: Cy5 PLAGL motif DNA (dsDNA)
DNA 1: GATCCATGGCCCCATGGATG
DNA 2: CATCCATGGGGCCATGGATC
B1: binds.
